Test system: Escherichia coli TOP10
Assay: shrunken log2 fold change of peptide-encoding DNA abundance (4.5 h post-induction vs induction); higher = less antimicrobial activity (less host growth inhibition)
Conditions: time post-induction: 4.5 h; library: site-saturation at positions 5, 18, 19, 20
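Further: peptides expressed intracellularly from a pBAD plasmid library in pooled LB shake-flask culture, induced with 0.3% L-arabinose, DNA abundance read by NGS, three biological replicates, DESeq2 with apeglm shrinkage.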

Row | Sequence | shrunken log2 fold change
1 | RRIRPRPPRLPRPRPRPILEPRP | -0.132
2 | RRIRPRPPRLPRPRPRPILHPRP | -0.277
3 | RRIRPRPPRLPRPRPRPILYPRP | -0.299
4 | RRIRPRPPRLPRPRPRPIMDPRP | -0.00126
5 | RRIRPRPPRLPRPRPRPINHPRP | -0.619
6 | RRIRPRPPRLPRPRPRPINRPRP | -0.11
7 | RRIRPRPPRLPRPRPRPIRKPRP | 0.0224
8 | RRIRPRPPRLPRPRPRPISNPRP | -0.408
9 | RRIRPRPPRLPRPRPRPIVEPRP | 0.233
10 | RRIRPRPPRLPRPRPRPIWFPRP | -0.0151
11 | RRIRPRPPRLPRPRPRPIYDPRP | -0.251
12 | RRIRPRPPRLPRPRPRPIYQPRP | -0.35
13 | RRIRPRPPRLPRPRPRPKCHPRP | 0.0622
14 | RRIRPRPPRLPRPRPRPKDLPRP | -0.146
15 | RRIRPRPPRLPRPRPRPKDWPRP | 0.342
16 | RRIRPRPPRLPRPRPRPKFFPRP | 0.0479
17 | RRIRPRPPRLPRPRPRPKFHPRP | -0.143
18 | RRIRPRPPRLPRPRPRPKHEPRP | 0.0756
19 | RRIRPRPPRLPRPRPRPKILPRP | 0.0456
20 | RRIRPRPPRLPRPRPRPKIMPRP | -0.437
21 | RRIRPRPPRLPRPRPRPKKAPRP | 0.129
22 | RRIRPRPPRLPRPRPRPKKYPRP | -0.555

Row | Sequence | shrunken log2 fold change
23 | RRIRPRPPRLPRPRPRPKMHPRP | 0.153
24 | RRIRPRPPRLPRPRPRPKNPPRP | 0.0941
25 | RRIRPRPPRLPRPRPRPKPKPRP | 0.382
26 | RRIRPRPPRLPRPRPRPKQDPRP | 0.0659
27 | RRIRPRPPRLPRPRPRPKRLPRP | 0.285
28 | RRIRPRPPRLPRPRPRPKRPPRP | 0.465
29 | RRIRPRPPRLPRPRPRPKSDPRP | 0.0265
30 | RRIRPRPPRLPRPRPRPKSHPRP | -0.246
31 | RRIRPRPPRLPRPRPRPKSQPRP | -0.193
32 | RRIRPRPPRLPRPRPRPKSYPRP | -0.0208
33 | RRIRPRPPRLPRPRPRPKTWPRP | 0.0474
34 | RRIRPRPPRLPRPRPRPKVPPRP | 0.303
35 | RRIRPRPPRLPRPRPRPKWPPRP | -0.0466
36 | RRIRPRPPRLPRPRPRPKYGPRP | -0.491
37 | RRIRPRPPRLPRPRPRPKYPPRP | -0.672
38 | RRIRPRPPRLPRPRPRPKYWPRP | -0.127
39 | RRIRPRPPRLPRPRPRPLACPRP | 0.265
40 | RRIRPRPPRLPRPRPRPLAWPRP | 0.439
41 | RRIRPRPPRLPRPRPRPLENPRP | -0.00388
42 | RRIRPRPPRLPRPRPRPLEPPRP | 0.0434
43 | RRIRPRPPRLPRPRPRPLERPRP | 0.277
44 | RRIRPRPPRLPRPRPRPLGRPRP | 0.0841

Row | Sequence | shrunken log2 fold change
45 | RRIRPRPPRLPRPRPRPLHKPRP | -0.00927
46 | RRIRPRPPRLPRPRPRPLISPRP | -0.17
47 | RRIRPRPPRLPRPRPRPLLMPRP | -0.185
48 | RRIRPRPPRLPRPRPRPLLPPRP | -0.0532
49 | RRIRPRPPRLPRPRPRPLLTPRP | 0.252
50 | RRIRPRPPRLPRPRPRPLNNPRP | -0.541
51 | RRIRPRPPRLPRPRPRPLQHPRP | -0.17
52 | RRIRPRPPRLPRPRPRPLQQPRP | 0.176
53 | RRIRPRPPRLPRPRPRPLSAPRP | 0.281
54 | RRIRPRPPRLPRPRPRPLSPPRP | -0.113
55 | RRIRPRPPRLPRPRPRPLVVPRP | -0.0898
56 | RRIRPRPPRLPRPRPRPLWLPRP | -0.0275
57 | RRIRPRPPRLPRPRPRPLYLPRP | -0.625
58 | RRIRPRPPRLPRPRPRPLYWPRP | -0.0211
59 | RRIRPRPPRLPRPRPRPMAHPRP | -0.165
60 | RRIRPRPPRLPRPRPRPMARPRP | 0.154
61 | RRIRPRPPRLPRPRPRPMFSPRP | -0.295
62 | RRIRPRPPRLPRPRPRPMFWPRP | -0.0858
63 | RRIRPRPPRLPRPRPRPMGDPRP | 0.234
64 | RRIRPRPPRLPRPRPRPMGWPRP | 0.217
65 | RRIRPRPPRLPRPRPRPMKMPRP | -0.148
66 | RRIRPRPPRLPRPRPRPMKSPRP | -0.0679

Row | Sequence | shrunken log2 fold change
67 | RRIRPRPPRLPRPRPRPMKYPRP | -0.157
68 | RRIRPRPPRLPRPRPRPMLPPRP | 0.0406
69 | RRIRPRPPRLPRPRPRPMMDPRP | 0.0321
70 | RRIRPRPPRLPRPRPRPMNCPRP | -0.138
71 | RRIRPRPPRLPRPRPRPMNDPRP | -0.329
72 | RRIRPRPPRLPRPRPRPMNEPRP | -0.0529
73 | RRIRPRPPRLPRPRPRPMPIPRP | 0.0579
74 | RRIRPRPPRLPRPRPRPMQAPRP | -0.0135
75 | RRIRPRPPRLPRPRPRPMQGPRP | -0.146
76 | RRIRPRPPRLPRPRPRPMQVPRP | -0.012
77 | RRIRPRPPRLPRPRPRPMRDPRP | 0.467
78 | RRIRPRPPRLPRPRPRPMSRPRP | -0.0311
79 | RRIRPRPPRLPRPRPRPMSTPRP | -0.229
80 | RRIRPRPPRLPRPRPRPMTKPRP | 0.0497
81 | RRIRPRPPRLPRPRPRPMTNPRP | -0.184
82 | RRIRPRPPRLPRPRPRPMTQPRP | 0.272
83 | RRIRPRPPRLPRPRPRPMTSPRP | 0.0205
84 | RRIRPRPPRLPRPRPRPMVIPRP | -0.0869
85 | RRIRPRPPRLPRPRPRPNCAPRP | 0.208
86 | RRIRPRPPRLPRPRPRPNCCPRP | 0.187
87 | RRIRPRPPRLPRPRPRPNDQPRP | 1.93
88 | RRIRPRPPRLPRPRPRPNEHPRP | -0.263

Row | Sequence | shrunken log2 fold change
89 | RRIRPRPPRLPRPRPRPNETPRP | 0.0335
90 | RRIRPRPPRLPRPRPRPNEVPRP | 0.292
91 | RRIRPRPPRLPRPRPRPNEYPRP | -0.783
92 | RRIRPRPPRLPRPRPRPNFCPRP | 0.257
93 | RRIRPRPPRLPRPRPRPNFQPRP | -0.00527
94 | RRIRPRPPRLPRPRPRPNGHPRP | -0.0534
95 | RRIRPRPPRLPRPRPRPNGTPRP | 0.247
96 | RRIRPRPPRLPRPRPRPNKRPRP | -0.101
97 | RRIRPRPPRLPRPRPRPNLGPRP | -0.242
98 | RRIRPRPPRLPRPRPRPNMEPRP | 0.0784
99 | RRIRPRPPRLPRPRPRPNMNPRP | -0.584
100 | RRIRPRPPRLPRPRPRPNMQPRP | -0.313
101 | RRIRPRPPRLPRPRPRPNMVPRP | -0.772
102 | RRIRPRPPRLPRPRPRPNNHPRP | -0.607
103 | RRIRPRPPRLPRPRPRPNNKPRP | -0.542
104 | RRIRPRPPRLPRPRPRPNNWPRP | -0.173
105 | RRIRPRPPRLPRPRPRPNPEPRP | -0.0226
106 | RRIRPRPPRLPRPRPRPNRLPRP | -0.0308
107 | RRIRPRPPRLPRPRPRPNRSPRP | 0.16
108 | RRIRPRPPRLPRPRPRPNSAPRP | 0.204
109 | RRIRPRPPRLPRPRPRPNSEPRP | -0.211
